From patent publication US6989256 (UNIVERSITY OF MEDICINE AND DENTISTRY OF NEW JERSEY, dated 2006)

Target: T1, FLAG epitope-tagged Mtt1p (yeast (S. cerevisiae), UniProt P32644 1-1121, limits assumed)
T1 construct: Used as a yeast cytoplasmic extract, not as purified protein; also called Flag-Mtt1p; Modulator of Translation Termination
T1 sequence (looked up): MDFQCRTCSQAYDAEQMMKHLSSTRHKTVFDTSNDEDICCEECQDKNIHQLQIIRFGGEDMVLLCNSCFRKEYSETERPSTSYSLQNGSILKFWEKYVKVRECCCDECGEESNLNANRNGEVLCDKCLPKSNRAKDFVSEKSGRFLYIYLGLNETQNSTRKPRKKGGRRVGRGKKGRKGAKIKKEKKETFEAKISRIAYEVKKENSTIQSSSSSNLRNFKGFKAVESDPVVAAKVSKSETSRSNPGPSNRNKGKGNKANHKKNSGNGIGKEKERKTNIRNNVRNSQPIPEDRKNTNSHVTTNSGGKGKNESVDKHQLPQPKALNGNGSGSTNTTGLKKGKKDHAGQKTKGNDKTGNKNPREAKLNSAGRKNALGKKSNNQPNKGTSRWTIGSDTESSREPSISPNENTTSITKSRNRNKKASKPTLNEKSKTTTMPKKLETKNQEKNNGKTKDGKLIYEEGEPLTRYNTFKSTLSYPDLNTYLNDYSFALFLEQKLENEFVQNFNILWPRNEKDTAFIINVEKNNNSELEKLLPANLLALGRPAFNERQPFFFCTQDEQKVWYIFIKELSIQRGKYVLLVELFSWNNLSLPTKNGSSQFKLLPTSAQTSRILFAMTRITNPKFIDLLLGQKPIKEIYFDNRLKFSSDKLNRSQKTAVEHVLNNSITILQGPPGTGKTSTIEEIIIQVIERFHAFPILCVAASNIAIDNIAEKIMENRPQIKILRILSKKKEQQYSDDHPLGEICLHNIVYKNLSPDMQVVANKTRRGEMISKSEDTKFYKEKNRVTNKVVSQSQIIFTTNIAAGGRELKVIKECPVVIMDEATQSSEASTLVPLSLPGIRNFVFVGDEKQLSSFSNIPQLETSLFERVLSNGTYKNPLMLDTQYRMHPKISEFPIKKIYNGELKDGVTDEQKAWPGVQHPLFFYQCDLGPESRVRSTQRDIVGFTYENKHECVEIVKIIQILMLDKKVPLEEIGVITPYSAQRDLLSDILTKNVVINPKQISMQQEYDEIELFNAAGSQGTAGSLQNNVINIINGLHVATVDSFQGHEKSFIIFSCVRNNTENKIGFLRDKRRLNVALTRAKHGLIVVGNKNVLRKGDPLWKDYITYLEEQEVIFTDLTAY
Experiment: GST pull-down from yeast cytoplasmic extract, anti-FLAG immunoblot
Procedure: Total RNA was prepared and subjected to RNA blotting analysis, using a probe for CYH2 mRNA. Figure 4: FIG. 4 Mtt1 interacts withe eRF3. Cytoplasmic extracts from a yeast strain BJ3505 transformed with either pG-1 (vector) or pG-1 FLAGMTT1 (Flag-Mtt1p) were prepared in IBTB and incubated with 30 μl GST, GST-eRF1. GST-eRF3, GST-eRF3NM or GST-eRF3C sepharose-protein complexes. The sepharose-protein complexes were washed 2 times in IBTB (see materials and methods), resuspended in SDS-PAGE loading buffer, separated on an 8% SDS-PAGE gel and immunoblotted using anti-FLAG antibody.
Since deleting the MTT1 gene also promotes nonsense suppression of the tyr7-1 and leu2-2 alleles, Mtt1p also interacts with the peptidyl release factors. To test this, eRF1 and eRF3 were individually expressed in *E. coli* as glutathione-S-transferase (GST) fusion proteins and purified using glutathione sepharose beads. The purified GST-RF (release factor) fusion proteins associated with the glutathione sepharose beads were added to a yeast cytoplasmic extract containing a FLAG epitope-tagged Mtt1p (see Experimental Procedures). Following incubation, the GST-RFs and associated proteins were purified by affinity chromatography and subjected to SDS-PAGE. Immunoblotting was performed and the presence of the Flag-Mtt1p was assayed using an antibody against the FLAG epitope.

B1: GST-eRF1 (other, yeast (S. cerevisiae), UniProt P12385 1-437, looked up)
chain: MDNEVEKNIEIWKVKKLVQSLEKARGNGTSMISLVIPPKGQIPLYQKMLTDEYGTASNIKSRVNRLSVLSAITSTQQKLKLYNTLPKNGLVLYCGDIITEDGKEKKVTFDIEPYKPINTSLYLCDNKFHTEVLSELLQADDKFGFIVMDGQGTLFGSVSGNTRTVLHKFTVDLPKKHGRGGQSALRFARLREEKRHNYVRKVAEVAVQNFITNDKVNVKGLILAGSADFKTDLAKSELFDPRLACKVISIVDVSYGGENGFNQAIELSAEALANVKYVQEKKLLEAYFDEISQDTGKFCYGIDDTLKALDLGAVEKLIVFENLETIRYTFKDAEDNEVIKFAEPEAKDKSFAIDKATGQEMDVVSEEPLIEWLAANYKNFGATLEFITDKSSEGAQFVTGFGGIGAMLRYKVNFEQLVDESEDEYYDEDEGSDYDFI
notes: also called GST-RF1; GST-RF; not shown: glutathione-S-transferase (GST) from vector pGEX2T
B1: no binding.
